Reference: publication PMC3392108 (Human Molecular Genetics, 2012)
Where no end group is shown, it is not given here.

Legend:
Assay in all cases: fluorescence polarisation
[1] = target: human mtHsp70 R126W PD variant (human, UniProt P38646 47-679, R126W)
[2] = target: human mitochondrial Hsp70 (mtHsp70), wild-type (human, UniProt P38646 47-679)
[3] = target: human mtHsp70 P509S PD variant (human, UniProt P38646 47-679, P509S)
Sequence of human mtHsp70 P509S PD variant (P38646 47-679 P509S): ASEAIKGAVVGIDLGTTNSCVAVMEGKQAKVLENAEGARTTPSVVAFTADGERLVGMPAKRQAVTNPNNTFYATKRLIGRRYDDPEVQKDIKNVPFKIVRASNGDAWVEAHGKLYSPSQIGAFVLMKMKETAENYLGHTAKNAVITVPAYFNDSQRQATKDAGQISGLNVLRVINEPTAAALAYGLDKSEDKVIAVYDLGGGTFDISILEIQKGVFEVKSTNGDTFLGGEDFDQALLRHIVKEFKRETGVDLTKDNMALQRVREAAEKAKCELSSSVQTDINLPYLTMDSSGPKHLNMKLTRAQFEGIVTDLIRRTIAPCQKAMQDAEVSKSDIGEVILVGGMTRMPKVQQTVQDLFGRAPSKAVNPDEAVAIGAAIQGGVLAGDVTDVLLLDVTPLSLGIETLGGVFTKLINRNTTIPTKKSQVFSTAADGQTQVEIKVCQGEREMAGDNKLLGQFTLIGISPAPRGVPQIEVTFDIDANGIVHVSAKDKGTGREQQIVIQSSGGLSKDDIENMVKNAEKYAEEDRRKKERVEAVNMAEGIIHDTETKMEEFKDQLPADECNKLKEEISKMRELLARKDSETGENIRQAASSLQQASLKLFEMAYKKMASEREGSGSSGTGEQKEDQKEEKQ

Sequence of human mitochondrial Hsp70 (mtHsp70), wild-type (P38646 47-679): as the sequence (P38646 47-679 P509S) above, with S463P counted along it
Sequence of human mtHsp70 R126W PD variant (P38646 47-679 R126W): as the sequence (P38646 47-679 P509S) above, with R80W, S463P counted along it

- Kd [1]: 13.6 ± 2.7 µM
- Kd [2]: 15.6 ± 1.4 µM
- Kd [3]: 15.7 ± 1.9 µM
Binder: ALLLSAPRR (also: fluorescein label, position not given here) [fluorescein-labeled P5 peptide (F-P5)]
